The results in this text go back to patent US20220341931A1.

This experiment deals with Influenza A [A/Hawaii/70/2019 (H1N1)pdm09-like virus] Hemagglutinin (HA), His-Tag (Native Antigen Co (Influenza A [A/Hawaii/70/2019 (H1N1)pdm09-like virus])).

Turning to “SARS-CoV-2 (2019-nCoV) Nucleocapsid Antibody, Rabbit MAb (Sino Biological Cat: 40143-R019)”, the barcode sequence counts (FLU A) turned out to be 2000 counts.
